Results: the supplement of paper PMC6757056
± gives the standard deviation of the averaged measurements.

B1: library; a variant is named by its letters at N, in order (parent)
chain: GCUGUCACCGGUGCUUGGUACGUUAUAUUCAGCCGGUCUGAUGAGUCUNNNNNNAGACGAAACAGC

Assays:
(6R,S)-folinic acid [1] = variants of: B1; assay: FACS-Seq fitted mean relative fluorescence mCherry/BFP without ligand (log10 relative fluorescence); HEK293T overexpressing SLC46A1; higher = higher reporter protein expression; conditions: without (6R,S)-folinic acid; ligand present: no
Method in brief: (§1)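 Reporter cells were enriched HEK293T libraries transduced by lentivirus with mCherry behind the ribozyme switch and with an EF1α-BFP marker. Following 48 h with or without ligand, they were sorted into 6 mCherry/BFP bins, and bin genomic DNA was PCR-amplified, barcoded and MiSeq-sequenced. Fluorescence was computed as the fitted normal mean of the bin counts. The fit used log10(mCherry/BFP), with scaling to five spiked-in control ribozymes.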

(6R,S)-folinic acid [2] = variants of: B1; assay: normalized RNA/DNA level without ligand (relative to sTRSVctl = 100) (log10 (% of sTRSVctl)); HEK293T overexpressing SLC46A1; higher = less ribozyme self-cleavage, higher mRNA level; conditions: without (6R,S)-folinic acid; ligand present: no
Procedure: (§2)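 Hammerhead (sTRSV) ribozyme switch libraries with a ligand aptamer grafted on stem I and a randomized N4-6 loop II, cloned into the 3' UTR of mCherry and transiently transfected into HEK293T cells; RNA-Seq 72 h post transfection with ligand added 1 h before transfection; RNA read count / plasmid DNA read count normalized to the non-cleaving sTRSVctl (x100), log10; sequences with >100 DNA reads. FACS-Seq: lentiviral library sorted into 6 bins after 48 h ligand, log-normal fit mean of mCherry/BFP scaled to controls. Printed sequences are partial switch sequences.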

(6R,S)-folinic acid [3] = variants of: B1; assay: FACS-Seq fitted mean relative fluorescence mCherry/BFP with ligand (log10 relative fluorescence); HEK293T overexpressing SLC46A1; ligand concentration (+) FACS-Seq: 6 mM; higher = higher reporter protein expression; conditions: with (6R,S)-folinic acid; ligand present: yes
Method in brief: as §1

(6R,S)-folinic acid [4] = variants of: B1; assay: normalized RNA/DNA level with ligand (relative to sTRSVctl = 100) (log10 (% of sTRSVctl)); HEK293T overexpressing SLC46A1; ligand concentration (+) RNA-Seq: 6 mM; higher = less ribozyme self-cleavage, higher mRNA level; conditions: with (6R,S)-folinic acid; ligand present: yes
Procedure: as §2

| Variant | FACS-Seq fitted mean (log10) ((6R,S)-folinic acid [1]) | normalized RNA/DNA level without ligand (log10) ((6R,S)-folinic acid [2]) | FACS-Seq fitted mean (log10) ((6R,S)-folinic acid [3]) | normalized RNA/DNA level with ligand (log10) ((6R,S)-folinic acid [4]) |
| --- | --- | --- | --- | --- |
| CAGCCU | 0.13 ± 0.12 | 2.052 ± 0.016 | -0.235 ± 0.22 | 2.05 ± 0.061 |
| AAGCCU | 0.313 ± 0.032 | 2.056 ± 0.015 | 0.326 ± 0.052 | 2.03 ± 0.027 |
| UACUGG | 0.0573 ± 0.058 | 1.65 ± 0.049 | 0.433 ± 0.099 | 1.97 ± 0.039 |
| UACUGC | 0.238 ± 0.013 | 2.01 ± 0.0074 | 0.329 ± 0.25 | 2.02 ± 0.049 |
| UACUAU | 0.437 ± 0.19 | 1.967 ± 0.018 | 0.489 ± 0.21 | 2.03 ± 0.023 |
| GAGCCU | 0.306 ± 0.041 | 2.076 ± 0.012 | 0.5133 ± 0.00087 | 2.062 ± 0.0057 |
| GAGCCA | 0.191 ± 0.0078 | 2.023 ± 0.02 | 0.281 ± 0.24 | 2.02 ± 0.047 |
| GAGCCG | 0.537 ± 0.069 | 2.047 ± 0.0093 | 0.419 ± 0.15 | 2.03 ± 0.05 |
| AACUCG | 0.22 ± 0.034 | 1.998 ± 0.014 | 0.302 ± 0.52 | 1.99 ± 0.026 |
| GAGCGA | 0.146 ± 0.064 | 1.997 ± 0.0086 | 0.145 ± 0.15 | 2.035 ± 0.011 |
| CAGCAU | 0.411 ± 0.13 | 1.96 ± 0.014 | 0.546 ± 0.21 | 2.01 ± 0.027 |
| AACUGG | 0.3585 ± 0.0022 | 1.936 ± 0.013 | 0.657 ± 0.038 | 2 ± 0.07 |
| AACUGA | 0.445 ± 0.11 | 2.008 ± 0.0069 | 0.455 ± 0.17 | 2.02 ± 0.038 |
| AAGACG | 0.519 ± 0.038 | 1.92 ± 0.0073 | 0.622 ± 0.38 | 2 ± 0.058 |
| AAGACA | 0.531 ± 0.012 | 1.985 ± 0.0083 | 0.754 ± 0.13 | 2.01 ± 0.023 |
| AACUAC | 0.381 ± 0.012 | 2 ± 0.021 | 0.181 ± 0.25 | 2.005 ± 0.02 |
| GAGACU | 0.361 ± 0.041 | 2.022 ± 0.0074 | 0.232 ± 0.024 | 2.02 ± 0.022 |
| UACGUG | 0.0454 ± 0.021 | 1.7 ± 0.018 | 0.518 ± 0.16 | 1.946 ± 0.011 |
| GAGCAU | 0.407 ± 0.06 | 1.979 ± 0.015 | 0.546 ± 0.41 | 2.016 ± 0.015 |
| GAGCAG | 0.523 ± 0.06 | 1.96 ± 0.004 | 0.688 ± 0.3 | 2.02 ± 0.058 |
| GAGCAC | 0.00982 ± 0.061 | 2.002 ± 0.02 | -0.159 ± 0.38 | 2.042 ± 0.0057 |
| GACUCC | 0.513 ± 0.089 | 2.053 ± 0.012 | 0.583 ± 0.11 | 2.06 ± 0.013 |
| GAGAAA | 0.129 ± 0.016 | 1.958 ± 0.011 | 0.0474 ± 0.047 | 1.996 ± 0.01 |
| GAGAAG | 0.0112 ± 0.083 | 1.905 ± 0.0077 | 0.219 ± 0.32 | 2.02 ± 0.029 |

| Variant | FACS-Seq fitted mean (log10) ((6R,S)-folinic acid [1]) | normalized RNA/DNA level without ligand (log10) ((6R,S)-folinic acid [2]) | FACS-Seq fitted mean (log10) ((6R,S)-folinic acid [3]) | normalized RNA/DNA level with ligand (log10) ((6R,S)-folinic acid [4]) |
| --- | --- | --- | --- | --- |
| GAGAAC | 0.435 ± 0.033 | 1.964 ± 0.0051 | 0.598 ± 0.32 | 2.02 ± 0.045 |
| UAGCGG | -0.127 ± 0.027 | 1.671 ± 0.0027 | 0.217 ± 0.06 | 1.96 ± 0.023 |
| CAGACA | 0.583 ± 0.12 | 2.017 ± 0.00058 | 0.769 ± 0.2 | 1.98 ± 0.02 |
| CAGACC | 0.131 ± 0.097 | 2.04 ± 0.012 | 0.261 ± 0.16 | 1.99 ± 0.031 |
| GAGAGU | 0.347 ± 0.02 | 1.982 ± 0.013 | 0.471 ± 0.28 | 2.014 ± 0.0034 |
| GAGAGA | 0.2 ± 0.041 | 1.946 ± 0.011 | 0.279 ± 0.16 | 2.01 ± 0.038 |
| GAGAGG | 0.109 ± 0.067 | 1.901 ± 0.012 | 0.336 ± 0.41 | 2.03 ± 0.026 |
| AAGAUG | 0.3831 ± 0.00047 | 1.8871 ± 0.00048 | 0.235 ± 0.29 | 1.997 ± 0.018 |
| AAGAUC | 0.442 ± 0.061 | 2.04 ± 0.0043 | 0.504 ± 0.1 | 2.02 ± 0.029 |
| AAGAUA | -0.141 ± 0.082 | 1.959 ± 0.0077 | -0.581 ± 0.18 | 1.994 ± 0.015 |
| AAGAUU | 0.318 ± 0.11 | 2.007 ± 0.0072 | 0.312 ± 0.032 | 2.02 ± 0.022 |
| AACUUA | 0.0993 ± 0.1 | 1.96 ± 0.032 | 0.0419 ± 0.12 | 1.98 ± 0.033 |
| AACUUG | 0.321 ± 0.0087 | 1.94 ± 0.0095 | 0.658 ± 0.031 | 1.996 ± 0.0088 |
| UAGACA | 0.386 ± 0.0059 | 1.967 ± 0.0049 | 0.455 ± 0.17 | 2 ± 0.029 |
| UAGACU | 0.606 ± 0.02 | 2.0068 ± 0.00026 | 0.559 ± 0.038 | 1.98 ± 0.051 |
| UAGACG | 0.218 ± 0.052 | 1.754 ± 0.0068 | 0.17 ± 0.055 | 1.97 ± 0.029 |
| GAGCUA | 0.516 ± 0.2 | 2.0209 ± 0.0014 | 0.415 ± 0.15 | 2.04 ± 0.035 |
| CACUGG | 0.801 ± 0.11 | 1.962 ± 0.013 | 0.687 ± 0.052 | 2.03 ± 0.021 |
| CACUGA | 0.463 ± 0.077 | 2.012 ± 0.0079 | 0.325 ± 0.16 | 2.04 ± 0.028 |
| CAGAUA | 0.631 ± 0.27 | 1.959 ± 0.008 | 0.663 ± 0.087 | 1.97 ± 0.027 |
| GACUAC | 0.495 ± 0.024 | 2.041 ± 0.011 | 0.191 ± 0.19 | 2.066 ± 0.016 |
| GACUAG | 0.271 ± 0.048 | 1.934 ± 0.019 | 0.493 ± 0.089 | 2 ± 0.033 |
| GACUAU | 0.375 ± 0.083 | 1.9961 ± 0.00078 | 0.557 ± 0.24 | 2.002 ± 0.0044 |
| UAGAUG | 0.3 ± 0.084 | 1.702 ± 0.0024 | 0.477 ± 0.13 | 1.97 ± 0.043 |

| Variant | FACS-Seq fitted mean (log10) ((6R,S)-folinic acid [1]) | normalized RNA/DNA level without ligand (log10) ((6R,S)-folinic acid [2]) | FACS-Seq fitted mean (log10) ((6R,S)-folinic acid [3]) | normalized RNA/DNA level with ligand (log10) ((6R,S)-folinic acid [4]) |
| --- | --- | --- | --- | --- |
| GACUUG | 0.321 ± 0.035 | 1.956 ± 0.018 | 0.389 ± 0.13 | 1.99 ± 0.039 |
| UAGAGA | 0.273 ± 0.12 | 1.807 ± 0.015 | 0.551 ± 0.33 | 1.99 ± 0.029 |
| UAGAGG | 0.0109 ± 0.02 | 1.561 ± 0.013 | 0.481 ± 0.11 | 1.9 ± 0.052 |
| UAGAGC | 0.0862 ± 0.082 | 1.93 ± 0.022 | 0.445 ± 0.031 | 1.99 ± 0.048 |
| UAGCAG | 0.207 ± 0.14 | 1.755 ± 0.0028 | 0.401 ± 0.18 | 1.957 ± 0.019 |
| UAGCAU | 0.36 ± 0.07 | 1.942 ± 0.0083 | 0.328 ± 0.2 | 2 ± 0.042 |
| UACUUG | 0.275 ± 0.057 | 1.78 ± 0.022 | 0.607 ± 0.16 | 1.98 ± 0.045 |
| UAGCCG | 0.635 ± 0.13 | 1.86 ± 0.036 | 0.409 ± 0.069 | 1.99 ± 0.041 |
| UAGCCU | 0.641 ± 0.044 | 2.02 ± 0.045 | 0.19 ± 0.0051 | 2.04 ± 0.037 |
| UAGAAA | 0.332 ± 0.024 | 1.9239 ± 0.0006 | 0.254 ± 0.35 | 2.01 ± 0.023 |
| UAGAAU | 0.421 ± 0.089 | 1.921 ± 0.016 | 0.615 ± 0.02 | 2 ± 0.041 |
| UAGAAG | 0.056 ± 0.02 | 1.654 ± 0.0022 | 0.456 ± 0.0016 | 1.963 ± 0.019 |
| AAGAGG | 0.589 ± 0.041 | 1.843 ± 0.0052 | 0.632 ± 0.11 | 1.99 ± 0.021 |
| AAGAGU | 0.413 ± 0.019 | 1.924 ± 0.0098 | 0.369 ± 0.0072 | 2.02 ± 0.047 |
| AAGAGA | 0.0158 ± 0.096 | 1.929 ± 0.0075 | 0.157 ± 0.024 | 2.03 ± 0.049 |
| AACGUU | 0.445 ± 0.028 | 1.991 ± 0.012 | 0.286 ± 0.094 | 1.98 ± 0.038 |
| AAGCAU | 0.218 ± 0.067 | 1.953 ± 0.019 | 0.102 ± 0.024 | 2.01 ± 0.039 |
| AAGCAA | 0.352 ± 0.078 | 1.964 ± 0.015 | 0.361 ± 0.1 | 1.994 ± 0.012 |
| AAGAAG | 0.22 ± 0.028 | 1.8593 ± 0.00099 | 0.315 ± 0.053 | 2 ± 0.052 |
| AAGAAA | 0.107 ± 0.0018 | 1.935 ± 0.0037 | 0.0952 ± 0.071 | 1.99 ± 0.021 |
| AAGAAC | 0.369 ± 0.066 | 1.985 ± 0.012 | 0.624 ± 0.1 | 2 ± 0.038 |
| CAGAAA | 0.257 ± 0.038 | 1.944 ± 0.0067 | 0.441 ± 0.2 | 1.97 ± 0.043 |
| CAGAAU | 0.372 ± 0.044 | 1.921 ± 0.0042 | 0.495 ± 0.24 | 1.951 ± 0.0096 |
| CAGAGG | -0.0517 ± 0.073 | 1.9 ± 0.016 | 0.0689 ± 0.4 | 2.002 ± 0.0054 |
